Test results published in publication PMC9638937, “Structural and functional determinants of the archaeal 8-oxoguanine-DNA glycosylase AGOG for DNA damage recognition and processing”.
Where a chain is given by its changes, count along the chain named.

T1: Pab-AGOG WT (Pyrococcus abyssi, UniProt Q9UZY0 1-239)
T1 sequence: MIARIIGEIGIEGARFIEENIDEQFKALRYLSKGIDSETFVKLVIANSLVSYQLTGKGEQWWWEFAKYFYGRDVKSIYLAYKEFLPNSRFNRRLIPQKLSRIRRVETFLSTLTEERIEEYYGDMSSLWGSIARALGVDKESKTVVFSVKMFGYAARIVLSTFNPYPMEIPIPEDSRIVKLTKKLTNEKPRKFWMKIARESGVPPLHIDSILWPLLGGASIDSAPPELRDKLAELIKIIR

T2: Pab-AGOG K142Q (Pyrococcus abyssi, UniProt Q9UZY0 1-239, K142Q)
T2 sequence: T1 sequence with K142Q

B1: 9-mer trapped AP strand with 9-mer A (dsDNA)
DNA 1: TTTGTTTCT
DNA 2: AGAAAAAAA
modifications: ring-open AP site from GO, borohydride-trapped, opposite A
B2: 9-mer GO:C duplex (dsDNA)
DNA 1: TTTGTTTCT
DNA 2: AGAAACAAA
modifications: 8-oxoguanine at position 4 (opposite C6*)
B3: 9-mer trapped AP strand with 9-mer T (dsDNA)
DNA 1: TTTGTTTCT
DNA 2: AGAAATAAA
modifications: ring-open AP site from GO, borohydride-trapped, opposite T

Experiments:
Pab-AGOG WT = molecular target: T1, Pab-AGOG WT; assay: X-ray structure; NaBH4-trapped covalent at K142; EMSA: 0.1 nM 32P-DNA, 20 mM HEPES/NaOH pH 7.6, 100 mM NaCl, 10% glycerol, 0.1% BSA, 30 min at 4 C; 10% native PAGE at 4 C; details: protein: recombinant; tags: N-terminal 6xHis (pET28a), removed by trypsin at thrombin site
Pab-AGOG K142Q = molecular target: T2, Pab-AGOG K142Q; assay: X-ray structure; non-covalent, 1.25 A; EMSA: 0.1 nM 32P-DNA, 20 mM HEPES/NaOH pH 7.6, 100 mM NaCl, 10% glycerol, 0.1% BSA, 30 min at 4 C; 10% native PAGE at 4 C; details: protein: recombinant; tags: N-terminal 6xHis (pET28a), removed by trypsin (as for WT)

Binder | binding result (Pab-AGOG WT) | binding result (Pab-AGOG K142Q)
B1 | binds | –
B2 | – | binds
B3 | binds | –
